According to US20190290758A1:

Molecular target: ELAVL4 1-117 with the canonical isoAsp-prone sites N7, N15 and D36 mutated (human)

An on-blot PIMT-catalyzed methylation with 3H-S-adenosyl methionine of 25% was found for “recombinant rat repair enzyme protein-L-isoaspartate O-methyltransferase (PIMT) (from UniProt P22062)” in this work.
